Measured values as given in patent CN114317447A.

Tests used:
[1] = target: 磷酸二(2-乙基己基)酯蛋白偶联物 (di(2-ethylhexyl) phosphate coupled to bovine serum albumin) (bovine (牛)) (UniProt P02769); test: indirect ELISA, D-BSA coated on plate, antibody titrated, OD450
[2] = target: 磷酸二(2-乙基己基)酯蛋白偶联物 (di(2-ethylhexyl) phosphate coupled to bovine serum albumin) (bovine (牛)) (UniProt P02769); test: indirect ELISA, D-BSA coated on plate, antibody titrated, OD450; unit from the x axis of Figure 1

Chain of UniProt P02769 (P02769 25-607 limits assumed, form in doubt): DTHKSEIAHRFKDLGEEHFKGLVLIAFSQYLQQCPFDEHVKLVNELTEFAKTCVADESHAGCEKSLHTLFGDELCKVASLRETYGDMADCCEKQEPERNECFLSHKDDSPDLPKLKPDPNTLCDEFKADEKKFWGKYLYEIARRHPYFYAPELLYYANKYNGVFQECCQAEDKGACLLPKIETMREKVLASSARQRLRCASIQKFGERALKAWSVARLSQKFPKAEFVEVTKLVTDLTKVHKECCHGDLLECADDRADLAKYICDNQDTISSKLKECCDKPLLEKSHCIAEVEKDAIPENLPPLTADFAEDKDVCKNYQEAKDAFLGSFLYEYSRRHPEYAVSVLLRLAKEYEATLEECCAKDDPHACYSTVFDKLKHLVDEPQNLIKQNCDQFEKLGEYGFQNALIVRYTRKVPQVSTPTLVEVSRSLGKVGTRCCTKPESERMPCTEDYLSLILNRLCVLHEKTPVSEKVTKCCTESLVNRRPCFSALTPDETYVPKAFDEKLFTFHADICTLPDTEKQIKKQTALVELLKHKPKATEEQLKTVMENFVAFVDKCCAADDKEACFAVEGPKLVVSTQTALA

B1: 磷酸二(2-乙基己基)酯单克隆抗体 (monoclonal antibody against di(2-ethylhexyl) phosphate, secreted by hybridoma cell line 2D5, CCTCC NO: C2021136) (antibody, V domains shown)
VH: QVQLQQSGAELVRPGSSVKISCKASGYAFSSYWMNWVKQRPGQGLEWIGQIYPGDGDTNYNGKFKGKATLTADKSSSTAYMQLSSLTSEDSAVYFCARSDYPWFVYWGQGTLVTVSA
VL: QIVLTQSPAIMSASPGEKVTISCSASSSVSYMYWYQQKPGSSPKPWIYRTSNLASGVPARFSGSGSGTSYSLTISSMEAEDAATYYCQQYHSYPWTFGGGTKLEIK
- A of the ELISA titer curve (lower asymptote, OD450) [1]: 0.203 OD450
- D of the ELISA titer curve (upper asymptote, OD450) [1]: 2.19 OD450
- C of the ELISA titer curve y=(A-D)/(1+(x/C)^B)+D (midpoint antibody concentration) [2]: 62.4 ng/mL
